One protein from patent US11898181B2, “Genetically modified isopropylmalate isomerase enzyme complexes and processes to prepare elongated 2-ketoacids and C5-C10 compounds therewith” (Dow Global Technologies LLC, priority 2017, dated 2022) can be followed below.

Test in all cases: Kinetic analysis of LeuCD (LeuB-coupled HTP assay), Variant 3 (wild type)
Common to all, as to assay type: biochemical, E. coli

Substrate in data set [1]: CC(C)[C@@](O)(CC(=O)O)C(=O)O
Particulars: other: 2-IPM 0-0.625 mM, pH 8, room temperature, 30 min.

Substrate in data set [2]: CCCCC(O)(CC(=O)O)C(=O)O
Particulars: other: 2-BM 0-5 mM, pH 8, room temperature, 30 min.

Substrate in data set [3]: CCCCCCC(O)(CC(=O)O)C(=O)O
Particulars: other: 2-HM 0-1.6 mM, pH 8, room temperature, 30 min.

B1: E. coli isopropylmalate isomerase LeuCD complex, wild type (Variant 3: Wt LeuC, SEQ ID NO: 1 + Wt LeuD, SEQ ID NO: 2) (Escherichia coli K-12) (protein)
chain 1: MGSSHHHHHHSSGMAKTLYEKLFDAHVVYEAENETPLLYIDRHLVHEVTSPQAFDGLRAHGRPVRQPGKTFATMDHNVSTQTKDINACGEMARIQMQELIKNCKEFGVELYDLNHPYQGIVHVMGPEQGVTLPGMTIVCGDSHTATHGAFGALAFGIGTSEVEHVLATQTLKQGRAKTMKIEVQGKAAPGITAKDIVLAIIGKTGSAGGTGHVVEFCGEAIRDLSMEGRMTLCNMAIEMGAKAGLVAPDETTFNYVKGRLHAPKGKDFDDAVAYWKTLQTDEGATFDTVVTLQAEEISPQVTWGTNPGQVISVNDNIPDPASFADPVERASAEKALAYMGLKPGIPLTEVAIDKVFIGSCTNSRIEDLRAAAEIAKGRKVAPGVQALVVPGSGPVKAQAEAEGLDKIFIEAGFEWRLPGCSMCLAMNNDRLNPGERCASTSNRNFEGRQGRGGRTHLVSPAMAAAAAVTGHFADIRNIK
chain 2: MAEKFIKHTGLVVPLDAANVDTDAIIPKQFLQKVTRTGFGAHLFNDWRFLDEKGQQPNPDFVLNFPQYQGASILLARENFGCGSSREHAPWALTDYGFKVVIAPSFADIFYGNSFNNQLLPVKLSDAEVDELFALVKANPGIHFDVDLEAQEVKAGEKTYRFTIDAFRRHCMMNGLDSIGLTLQHDDAIAAYEAKQPAFMN
notes: expression of a His-tagged LeuC having 13 additional amino acids on the N-terminus; made in house; host or cells: E. coli BL21(DE3), whole cell lysate
With B1, in data set [1], the Km – broadly, the concentration of substrate that gives half-maximal velocity – amounted to 68 ± 10 µM; the kcat (usually the number of substrate molecules converted per active site and unit of time at saturation) was 0.4239 ± 0.0161 s⁻¹; the kcat/Km (as a rule, the second-order rate constant that governs catalysis at low substrate concentration) was 6212.8 ± 659.7 M⁻¹ s⁻¹. Also, in data set [2], the Km turned out to be 1330 ± 140 µM, the kcat is 1.7 ± 0.0897 s⁻¹ and the kcat/Km came to 1291 ± 154 M⁻¹ s⁻¹. The kcat/Km in data set [3] is 1.1 ± 0.28 M⁻¹ s⁻¹.
